In patent publication US20230303681A1:

Key:
mouse TMEM106B (mouse) [1] = target: mouse TMEM106B (mouse) (UniProt Q80X71); assay: FACS, HEK293 transfectants
mouse TMEM106B (mouse) [2] = target: mouse TMEM106B (mouse) (UniProt Q80X71); assay: FACS Neuro2a

B1: anti-TMEM106B antibody TM-4 (antibody, V domains shown)
VH: EVQVQQSGPVLVKPGASVKMSCKASGYTFTDYYMNWVKQSHGKNLEWIGVINPYNGGTSYHQKFKGKATLTVDKSSSTAYMELNSLTSEDSAVYYCARAATVVAGFDYWGQGTTLTVSS
VL: QAVVTQESALTTSPGETVTLTCRSSTGAVTTSNYANWVQEKPDHLFTGLIGGTNNRAPGVPARFSGSLIGDKAALTITGAQTEDEAIYFCVLWYSNHLVFGGGTKLTVL
A fold-change over parental HEK293 (mouse TMEM106B (mouse) [1]) of 1.97 fold and an MFI (mouse TMEM106B (mouse) [2]) of 325 were found for B1 in this work.
